The text below walks through data of paper PMC7859635, “The “C3aR Antagonist” SB290157 is a Partial C5aR2 Agonist” (Frontiers in Pharmacology, 2021).

In assay [1] the target is T1, C5aR2 (Homo sapiens, UniProt Q9P296).
T1 construct: human C5aR2-Venus
Description: BRET β-arrestin […] recruitment to C5aR2 in transfected HEK293 cells (partial agonist). Type of assay: cell-based.

In assay [2] the target is human C3aR on Chinese hamster ovary cells stably expressing C3aR (CHO-C3aR) (human) (UniProt Q16581).
Assay [3] concerns the target human C3aR of human monocyte-derived macrophages (HMDMs) (human (endogenous in HMDMs)) (UniProt Q16581).

Chain of purified human C3a (P01024 672-748): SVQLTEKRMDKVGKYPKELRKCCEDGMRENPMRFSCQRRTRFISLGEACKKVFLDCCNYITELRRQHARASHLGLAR
T1 sequence (Q9P296 whole entry): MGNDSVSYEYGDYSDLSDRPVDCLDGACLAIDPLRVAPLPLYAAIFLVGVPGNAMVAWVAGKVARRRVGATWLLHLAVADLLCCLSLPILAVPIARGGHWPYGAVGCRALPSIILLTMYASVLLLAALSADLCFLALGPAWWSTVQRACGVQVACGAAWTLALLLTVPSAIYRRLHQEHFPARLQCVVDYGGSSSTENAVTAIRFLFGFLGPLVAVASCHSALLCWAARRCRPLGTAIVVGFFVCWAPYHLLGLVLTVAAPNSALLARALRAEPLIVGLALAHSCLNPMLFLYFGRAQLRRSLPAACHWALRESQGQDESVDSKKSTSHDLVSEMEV
Chain of human C3aR on Chinese hamster ovary cells stably expressing C3aR (CHO-C3aR) (human) (Q16581 whole entry): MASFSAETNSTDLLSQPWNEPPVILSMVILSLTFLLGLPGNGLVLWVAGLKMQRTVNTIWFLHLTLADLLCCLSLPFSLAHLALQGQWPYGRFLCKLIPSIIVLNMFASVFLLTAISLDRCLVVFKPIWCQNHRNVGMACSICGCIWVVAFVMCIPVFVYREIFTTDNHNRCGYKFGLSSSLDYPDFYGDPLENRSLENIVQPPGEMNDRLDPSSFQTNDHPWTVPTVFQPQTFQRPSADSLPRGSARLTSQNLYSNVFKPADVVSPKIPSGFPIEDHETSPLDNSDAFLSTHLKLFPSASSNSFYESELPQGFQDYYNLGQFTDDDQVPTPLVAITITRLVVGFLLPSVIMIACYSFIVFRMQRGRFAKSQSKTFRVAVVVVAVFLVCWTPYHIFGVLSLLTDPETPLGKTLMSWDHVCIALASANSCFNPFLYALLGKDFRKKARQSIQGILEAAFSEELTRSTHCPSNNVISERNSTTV
Chain of human C3aR of human monocyte-derived macrophages (HMDMs) (human (endogenous in HMDMs)) (Q16581 whole entry): as above

What is called EC50 is the concentration needed to bring the measured effect to its halfway point. The compound `N=C(N)NCCC[C@H](NC(=O)COCC(c1ccccc1)c1ccccc1)C(=O)O` [SB290157] yielded an EC50 in assay [1] of 16100 nM.
“purified human C3a (from UniProt P01024 672-748) (ligand)” showed a phosphorylation of ERK1/2 in CHO-C3aR cells (AlphaLISA, 10 min), EC50 in assay [2] of 0.39 nM. For the same compound, in assay [3], the phosphorylation of ERK1/2 in HMDMs (AlphaLISA, 10 min), EC50 was 0.21 nM.
